Like-named read-outs stand apart in the source and are kept apart here.
T1: Lsm2-8 heteroheptameric ring (UniProt P38203;P57743;P40070;P40089;Q06406;P53905;P47093 …)
T1 sequence 1: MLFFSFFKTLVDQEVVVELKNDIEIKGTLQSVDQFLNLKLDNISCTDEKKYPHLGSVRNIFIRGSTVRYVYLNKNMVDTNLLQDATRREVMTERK
T1 sequence 2: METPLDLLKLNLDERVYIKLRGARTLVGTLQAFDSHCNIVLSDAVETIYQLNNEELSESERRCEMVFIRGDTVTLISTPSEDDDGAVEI
T1 sequence 3: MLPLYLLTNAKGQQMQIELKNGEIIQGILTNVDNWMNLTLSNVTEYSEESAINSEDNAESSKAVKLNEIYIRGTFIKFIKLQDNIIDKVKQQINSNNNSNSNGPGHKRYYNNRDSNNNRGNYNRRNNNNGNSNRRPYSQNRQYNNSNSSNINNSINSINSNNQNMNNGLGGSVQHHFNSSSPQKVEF
T1 sequence 4: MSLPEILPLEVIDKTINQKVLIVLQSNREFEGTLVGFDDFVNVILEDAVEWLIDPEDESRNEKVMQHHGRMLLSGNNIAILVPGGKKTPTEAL
T1 sequence 5: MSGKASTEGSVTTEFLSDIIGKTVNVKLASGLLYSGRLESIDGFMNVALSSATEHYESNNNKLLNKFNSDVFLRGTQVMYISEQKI
T1 sequence 6: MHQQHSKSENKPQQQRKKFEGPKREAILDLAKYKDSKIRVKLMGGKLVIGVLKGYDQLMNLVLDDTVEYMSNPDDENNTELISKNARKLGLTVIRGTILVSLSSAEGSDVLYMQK
T1 sequence 7: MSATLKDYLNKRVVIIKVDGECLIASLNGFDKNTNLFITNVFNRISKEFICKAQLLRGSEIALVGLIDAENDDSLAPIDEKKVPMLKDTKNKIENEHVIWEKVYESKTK


Experiments:
[1] = target: T1, Lsm2-8 heteroheptameric ring; experiment: EMSA
[2] = target: T1, Lsm2-8 heteroheptameric ring; experiment: EMSA; remark: listed apart in the source

| Binder | binding result [1] | binding result [2] |
| --- | --- | --- |
| U6_WT/U2_WT helix II (dsRNA, 3'-phosphate on U6) RNA 1: UACAAAGAGAUUUAUUUCGUUUU RNA 2: ACGAAUCUCUUUGCCUUUUGGCUUAGAU | binds |  |
| UACAAAGAGAUUUAUUUCGUUUU (ssRNA, 3'-phosphate) [U6_WT] |  | binds |
